Publication PMC8184782 (Nature Communications, 2021)

Target: the molecule itself
Test: non-reducing SDS-PAGE; MDFs treated with TSZ, lysed in DISC lysis buffer; loading dye without beta-mercaptoethanol, immunoblot for MLKL; intermolecular disulfide bonds stabilise the trimer

B1: mixed lineage kinase domain-like (MLKL) pseudokinase, mouse, wild type, endogenous (natural protein, mouse (endogenous in MDFs), UniProt Q9D2Y4-2 1-464, looked up)
chain: MDKLGQIIKLGQLIYEQCEKMKYCRKQCQRLGNRVHGLLQPLQRLQAQGKKNLPDDITAALGRFDEVLKEANQQIEKFSKKSHIWKFVSVGNDKILFHEVNEKLRDVWEELLLLLQVYHWNTVSDVSQPASWQQEDRQDAEEDGNENMKVILMQLQISVEEINKTLKQCSLKPTQEIPQDLQIKEIPKEHLGPPWTKLKTSKMSTIYRGEYHRSPVTIKVFNNPQAESVGIVRFTFNDEIKTMKKFDSPNILRIFGICIDQTVKPPEFSIVMEYCELGTLRELLDREKDLTMSVRSLLVLRAARGLYRLHHSETLHRNISSSSFLVAGGYQVKLAGFELSKTQNSISRTAKSTKAERSSSTIYVSPERLKNPFCLYDIKAEIYSFGIVLWEIATGKIPFEGCDSKKIRELVAEDKKQEPVGQDCPELLREIINECRAHEPSQRPSVDGILERLSAVEESTDKKV
modifications: after TSZ: phosphorylated at S345; K63-linked ubiquitin chains, Ub acceptor lysines K51, K77, K172 and K219
notes: MLKL, mouse, endogenous in MDFs; Oligomers are seen only in cells treated with TNF/SM-164/z-VAD-FMK (TSZ); also called mMLKL; MLKL^WT; source: endogenous, mouse dermal fibroblasts (MDFs), in lysate or digitonin membrane fraction, after TSZ treatment
- stoichiometry N: 3
